Test results: paper PMC4375503, “Structural Insights into the Autoregulation and Cooperativity of the Human Transcription Factor Ets-2*”

B1: single-site EMSA probe (dsDNA)
DNA 1: ATCTCACCGGAAGTGTAGCA
DNA 2: TGCTACACTTCCGGTGAGAT
B2: crystallization 10-mer (dsDNA)
DNA 1: ACCGGAAGTG
DNA 2: CACTTCCGGT

What was measured:
[1] = target: T1, Ets-2 360-464 (core Ets domain) (Homo sapiens, UniProt P15036 360-464); test: EMSA; apparent Kd; EMSA: 50 mM Tris-HCl pH 7.5, 25 mM NaCl, 50 mM L-arginine-HCl, 0.5 mM EDTA, 0.1% Tween 20, 2 mM DTT, 5% glycerol, room temperature 15 min; probe 0.1 nM (Ets-2); settings: protein: recombinant; tags: His tag removed by TEV; label: 5'-32P on strand 1; blunt
T1 sequence: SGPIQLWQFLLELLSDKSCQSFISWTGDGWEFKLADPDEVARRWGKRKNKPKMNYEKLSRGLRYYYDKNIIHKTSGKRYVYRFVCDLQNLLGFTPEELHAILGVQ

[2] = target: T2, Ets-1 short (equivalent of Ets-2 360-464) (Mus musculus, UniProt P27577 331-440); test: as above; settings: protein: recombinant; tags: His tag removed by TEV; label: 5'-32P on strand 1; blunt
T2 sequence: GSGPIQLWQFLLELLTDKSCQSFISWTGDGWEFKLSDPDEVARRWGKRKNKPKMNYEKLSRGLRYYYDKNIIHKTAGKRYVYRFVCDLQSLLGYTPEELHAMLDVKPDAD

[3] = target: T3, Ets-2 325-464 (core Ets and autoinhibition domains) (Homo sapiens, UniProt P15036 325-464); test: X-ray crystallography; 2.5 A; 3 Ets-2 and 3 duplexes per asymmetric unit; pH 5.5; EMSA: 50 mM Tris-HCl pH 7.5, 25 mM NaCl, 50 mM L-arginine-HCl, 0.5 mM EDTA, 0.1% Tween 20, 2 mM DTT, 5% glycerol, room temperature 15 min; probe 0.1 nM (Ets-2); settings: protein: recombinant; tags: His tag removed by TEV; blunt
T3 sequence: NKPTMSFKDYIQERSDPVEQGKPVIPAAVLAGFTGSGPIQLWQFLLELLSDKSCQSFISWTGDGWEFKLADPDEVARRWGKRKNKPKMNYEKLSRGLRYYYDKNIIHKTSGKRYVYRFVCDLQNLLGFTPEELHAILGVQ

Binder	Kd [1]	Kd [2]	binding result [3]
B1	400 ± 40 pM	100 ± 60 pM	
B2			binds
